Laboratory results as given in patent publication US10155020B2, “Compositions and methods for treating hepatitis B” (The Regents of the University of Colorado, a body corporate, priority 2012, dated 2018).
Numbering of substitutions follows the chain as printed. Names and notes keep the numbering of the source. Values joined by “and” are separate entries in the source; they are usually repeats but may differ in a detail not shown here. Identical values can stand only once.

What was measured:
[1] = system: PLM neurons; assay: PLM touch cell killing by HBx in C. elegans; assay type: in vivo
Protocol: The presence of GFP-positive PLM neurons was scored using a Nomarski microscope. The data are shown in three categories: both PLM missing (black bars), one PLM missing (gray bars) and no PLM missing (white bars). The y axis represents percentage of each category. Percentage numbers under columns indicate the total PLM missing percentage in each experiment. More than 40 animals were scored in each experiment.
C. elegans strains and cell death assays. Animals were grown and maintained using standard protocols. Germline transformation was used to generate transgenic C. elegans strains expressing HBx and other genes. […] PLM killing by HBx was scored as described in Nat Struct Mol Biol., 2008, 15, 1094-1101.
Quantification of PLM Killings by HBx. PLM neurons were scored in L4 larvae in the presence of the integrated transgene, smIs98 or bzIs8, using a Nomarski microscope equipped with epifluorescence.
Chemical Treatment of C. elegans. Worms were treated with chemicals using an oil-base protocol. […] L4 larval stage hermaphrodite animals were placed onto standard NGM plates seeded with OP50. Oil solutions containing the chemicals were spread (0.8-1.0 ml) onto each plate so that the NGM surface was completely covered by oil. Worms lived at the interface of the NGM medium and the oil. F1 progeny was examined for PLM cell death or the FRET ratio in PLMs.

[2] = system: cytosolic Ca^2+ in PLM neurons; assay: Cameleon FRET cytosolic calcium imaging in PLM neurons (bzIs17); assay type: in vivo, C. elegans
Description: Calcium imaging and analysis. A C. elegans strain with an integrated Pmec-4YC2.12 cameleon transgene (bzIs17) was used to quantify relative cytosolic calcium levels in PLM neurons by the FRET microscopy.
Calcium Imaging and Analysis in C. elegans. A C. elegans strain with an integrated Pmec-4YC2.12 cameleon transgene (bzIs17) was used to quantify relative cytosolic calcium levels in PLM neurons. Animals at the L1 larval stage were immobilized on a 2% agar pad in a solution containing 0.3 M 2,3-butanedione monoxime and 10 mM HEPES (pH 7.2). PLM neurons were visualized using an Axioplan 2 Nomarski Microscope (Zeiss) equipped with a SensiCam CCD camera (PCO Imaging Kelheim, Germany). […] The FRET ratio was calculated by (FRETPLM−FRETbkgnd)/(CFPPLM−CFPbkgnd), where FRETPLM and CFPPLM are the mean fluorescent intensities in the FRET and CFP channels of the PLM neuron and FRETbkgnd and CFPbkgnd are the mean fluorescent intensities in the FRET and CFP channels of a background region adjacent to the PLM neurons.
A C. elegans strain carrying an integrated transgene (bzIs17) that expresses a cameleon Ca^2+ sensor under the control of the mec-4 gene promoter was used to monitor intracellular Ca^2+ in six touch cells through the fluorescence-resonance energy transfer (FRET) assay.

[3] = system: HBV DNA replication; assay: HBV DNA replication in pHBV-transfected HepG2 cells; assay type: cell-based, hepatitis B virus; settings: cells transfected with mutant HBV genome HBx(G124L, I127A); 5 μM
Protocol: Quantification of HBV DNA replication and HBcAg. Southern hybridization analysis and quantitative real-time PCR were used to quantify the amount of HBV replication DNA intermediates isolated from HepG2 cells or from mouse livers. The level of cytoplasmic HBcAg was measured by chemiluminescence using a commercial assay kit.
Southern Blot Analysis. HepG2 cells (3×10 cm plate per sample) transfected with the pHBV replicon (wild-type or mutant) were washed twice with cold phosphate-buffered saline (PBS) and lysed in 750 μl NET buffer (50 mM Tris-HCl pH 7.5, 1 mM EDTA, 100 mM NaCl, 0.5% Nonidet P-40) per 10 cm plate for 1 hour. HepG2 cell lysates were clarified by centrifugation at 12000 g for 30 minutes at 4° C. The supernatant was adjusted to 6 mM CaCl2 and treated with 100 μg/ml of Micrococcal nuclease for 30 minutes at 37° C. The reaction was stopped by addition of EDTA to a final concentration of 25 mM. […]
Quantitative Real-Time PCR Analysis. […] The pHBV plasmid was used as the standard for quantification and serial dilutions from 2×10^8 to 200 IU/ml were prepared. The primer sequences for quantitative PCR were chosen carefully from regions coding for HBV S antigen and Polymerase. […] PCR products were analyzed by fluorescence. […] The measured raw copy number from each reaction was calculated using the CT value of each PCR interpolated against the linear regression of the standard curve. […]

[4] = biological target: CED-9 (C. elegans) (UniProt P41958); assay: isothermal titration calorimetry; peptaibol TK titrated into CED-9
[5] = biological target: T1, CED-9 (Caenorhabditis elegans, UniProt P41958); assay: Isothermal titration calorimetry (ITC), titration of CED-9; assay type: binding, C. elegans; settings: no peptaibol TK
T1 sequence (P41958 1-280): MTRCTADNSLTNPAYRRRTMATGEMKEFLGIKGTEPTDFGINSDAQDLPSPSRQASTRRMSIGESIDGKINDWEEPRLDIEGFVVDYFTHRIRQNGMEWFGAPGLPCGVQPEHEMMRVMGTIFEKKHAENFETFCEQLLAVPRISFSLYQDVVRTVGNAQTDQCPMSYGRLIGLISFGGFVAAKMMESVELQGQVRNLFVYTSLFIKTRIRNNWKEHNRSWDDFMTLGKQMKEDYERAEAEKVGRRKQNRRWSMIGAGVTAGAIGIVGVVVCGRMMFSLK

[6] = biological target: T2, CED-9 (C. elegans, UniProt P41958 1-251); assay: isothermal titration calorimetry
T2 sequence (looked up): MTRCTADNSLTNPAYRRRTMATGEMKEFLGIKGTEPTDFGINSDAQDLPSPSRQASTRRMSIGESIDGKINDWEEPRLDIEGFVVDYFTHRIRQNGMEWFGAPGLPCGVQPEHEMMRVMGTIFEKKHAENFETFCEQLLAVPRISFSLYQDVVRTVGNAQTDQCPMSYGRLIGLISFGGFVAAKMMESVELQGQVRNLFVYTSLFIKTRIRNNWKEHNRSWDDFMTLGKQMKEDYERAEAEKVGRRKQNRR

[7] = biological target: CED-9 pre-incubated with peptaibol TK (C. elegans; Trichoderma pseudokoningii) (UniProt P41958); assay: isothermal titration calorimetry; CED-9 pre-incubated with peptaibol TK, titrated with EGL-1
[8] = biological target: Bcl-2 family proteins; assay: cell-based or functional assay
[9] = biological target: T3, CED-9(68-251; G169E)-His6 (C. elegans, UniProt P41958 68-251); assay: GST pull-down, immunoblot
T3 construct: range 68-251; also called CED-9(G169E); mutant CED-9(G169E) protein
T3 sequence: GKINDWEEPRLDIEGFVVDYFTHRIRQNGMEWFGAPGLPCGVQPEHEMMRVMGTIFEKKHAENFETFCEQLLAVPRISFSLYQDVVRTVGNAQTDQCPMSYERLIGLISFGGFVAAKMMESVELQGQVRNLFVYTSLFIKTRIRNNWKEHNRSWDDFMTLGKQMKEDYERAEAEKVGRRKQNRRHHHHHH

[10] = biological target: T4, His6-mBax(1-173) (mouse, UniProt Q07813 1-173); assay: GST pull-down, immunoblot
T4 construct: range 1-173; also called mouse Bax(1-173)
T4 sequence (Q07813 other isoform, or with tags, fused parts or gaps limits assumed): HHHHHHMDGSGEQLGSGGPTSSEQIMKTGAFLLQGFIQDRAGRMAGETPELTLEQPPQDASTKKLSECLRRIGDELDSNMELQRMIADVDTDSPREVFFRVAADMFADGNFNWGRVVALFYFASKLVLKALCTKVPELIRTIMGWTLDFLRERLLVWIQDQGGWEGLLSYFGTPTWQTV

[11] = biological target: T5, Mcl-1 (human, UniProt Q07820 1-350); assay: co-immunoprecipitation with anti-Flag antibody from HepG2 cells, immunoblot
T5 construct: also called anti-apoptotic Bcl-2 family member Mcl-1
T5 sequence (Q07820 whole entry): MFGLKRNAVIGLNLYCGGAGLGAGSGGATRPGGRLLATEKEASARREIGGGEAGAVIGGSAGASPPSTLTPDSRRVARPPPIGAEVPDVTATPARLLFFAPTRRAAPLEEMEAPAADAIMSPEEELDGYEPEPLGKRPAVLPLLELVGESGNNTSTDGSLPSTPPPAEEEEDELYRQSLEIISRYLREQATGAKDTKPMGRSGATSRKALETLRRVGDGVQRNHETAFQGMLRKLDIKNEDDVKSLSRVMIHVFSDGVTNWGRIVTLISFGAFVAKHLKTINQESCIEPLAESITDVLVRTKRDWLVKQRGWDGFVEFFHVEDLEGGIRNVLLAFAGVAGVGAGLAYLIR

[12] = biological target: T6, CED-9 (in C. elegans animals) (C. elegans, UniProt P41958 1-280); assay: cell-based or functional assay
T6 sequence: T1 sequence (P41958 1-280)

[13] = biological target: T5, Mcl-1; assay: co-immunoprecipitation with anti-HBx antibody from pHBV-transfected HepG2 cells, immunoblot
[14] = biological target: T7, human Bcl-xL (human, UniProt Q07817 1-233); assay: co-immunoprecipitation with anti-Flag antibody from HepG2 cells, immunoblot
T7 construct: also called endogenous Bcl-xL
T7 sequence (Q07817 whole entry): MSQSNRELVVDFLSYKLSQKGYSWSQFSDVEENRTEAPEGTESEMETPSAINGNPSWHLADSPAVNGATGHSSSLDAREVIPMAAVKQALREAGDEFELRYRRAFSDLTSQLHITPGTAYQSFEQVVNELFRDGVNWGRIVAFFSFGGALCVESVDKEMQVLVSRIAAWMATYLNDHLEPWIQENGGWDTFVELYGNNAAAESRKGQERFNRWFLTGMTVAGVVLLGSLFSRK

[15] = biological target: T7, human Bcl-xL; assay: co-immunoprecipitation with anti-HBx antibody from pHBV-transfected HepG2 cells, immunoblot

In the case of cyclosporin A [CsA], the “percentage of missing PLM” value ([1]; smIs98 animals that normally lost 50% of PLM neurons) is reported as 15%, the PLM death ([1]; smIs98 animals with loss of ced-3) is reported as 4% and the “HBx-induced cytosolic Ca^2+ increase (FRET ratio)” value ([2]; bzIs17, asp-3(tm4559), smIs451 animals) is reported as “completely suppressed”.

C[C@H](CCC(=O)O)C[C@H](C)C[C@H](C)C(=O)/C=C(\O)[C@H](C)C[C@H](C)C/C=C/[C@@H](C)[C@@H](O)[C@@H](C)[C@@H](O)C[C@@H]1CC[C@@](C)([C@H]2CC[C@@](C)([C@@H](C)O)O2)O1 [ionomycin] was tested, and the “HBV DNA replication” value [3] was “largely rescued”.

peptaibol TK (peptide) showed a Ka [4] of 42600 M⁻¹.

With C/C=C(/C)C(=O)O[C@H]1C(C)=C2[C@H]([C@@H]1OC(=O)CCCCCCC)[C@@](C)(OC(C)=O)C[C@H](OC(=O)CCC)[C@@]1(O)[C@H]2OC(=O)[C@@]1(C)O [thapsigargin] the “FRET ratio in PLM neurons” value ([2]; bzIs17 animals, vs untreated or vector-treated animals) was “significantly higher”.

B1: EGL-1 (other, C. elegans, UniProt O61667 16-106, looked up)
chain: MSNVFDVQSSVFYNEKNMFYSSSQDFSSCEDSSQFADDSGFFDDSEISSIGYEIGSKLAAMCDDFDAQMMSYSAHASDRSLFHRLLDFFAF
notes: also called BH3-only protein EGL-1
With B1 the “binding affinity of EGL-1 to CED-9” value [5] was 4.04e+06 M⁻¹, the Ka [6] was 4.04e+06 M⁻¹ and the Ka [7] was 1.52e+08 M⁻¹. For the same molecule, the fold of the binding affinity between CED-9 and EGL-1 without peptaibol TK [7] was 38 fold.

B2: HBx(G124L, I127A), P03165 1-154 (protein)
chain: MAARLCCQLDPARDVLCLRPVGAESRGRPFSGSLGTLSSPSPSAVPTDHGAHLSLRGLPVCAFSSAGPCALRFTSARRMETTVNAHQILPKVLHKRTLGLSAMSTTDLEAYFKDCLFKDWEELLEEARLKVFVLGGCRHKLVCAPAPCNFFTSA
B2 was tested, and the reduction in HBV DNA replication against the wild-type HBV genome, Q-PCR of viral particles from HepG2 cells [8] was 8 fold and 9 fold and the reduction of replicative DNA intermediates in mouse liver against the wild-type pHBV replicon, southern blot [8] was 2 to 3 fold.

B3: GST-HBx (other)
chain: B2 chain with L124G, A127I
notes: also called pGEX-4T-2-HBx
B3: no binding [9]; no binding [10].

B4: Flag-HBx (other)
chain: B2 chain with L124G, A127I
notes: also called pcDNA3.1-Flag-HBx
B4: no binding [11].

B5: HBV x protein (HBx) (other)
chain: B2 chain with L124G, A127I
notes: also called hepatitis B virus X protein
With B5 the “FRET ratio of cameleon Ca2+ sensor in PLM neurons (cytosolic Ca2+)” value [12] was 40% and the binding result [13] was “no binding”.

B6: Flag-HBx(G124L, I127A) (other)
chain: B2 chain
notes: also called pcDNA3.1-Flag-HBx(G124L, I127A)
B6: no binding [14].

B7: HBx(G124L, I127A) (other)
chain: B2 chain
notes: also called mutant pHBV
B7: no binding [15].
